# Results taken from publication PMC9482650, “Quantitative fragmentomics allow affinity mapping of interactomes” (Nature Communications, 2022).
# T1: RAPGEF6, Q8TEU7
# T1 sequence (Q8TEU7 525-625, limits assumed, looked up): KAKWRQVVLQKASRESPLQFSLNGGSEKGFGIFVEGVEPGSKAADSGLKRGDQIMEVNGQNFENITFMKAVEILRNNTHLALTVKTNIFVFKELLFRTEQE
# T2: HTRA4, P83105
# T2 sequence (P83105 378-476, limits assumed, looked up): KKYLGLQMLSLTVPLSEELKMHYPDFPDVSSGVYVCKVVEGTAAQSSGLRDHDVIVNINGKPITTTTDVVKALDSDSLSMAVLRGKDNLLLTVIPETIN
# T3: TIAM2, Q8IVF5
# T3 sequence (Q8IVF5 885-986, limits assumed, looked up): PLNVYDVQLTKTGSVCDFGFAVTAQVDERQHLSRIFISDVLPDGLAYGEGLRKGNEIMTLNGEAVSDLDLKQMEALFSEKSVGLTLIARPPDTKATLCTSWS
# T4: GRIP1_7, Q9Y3R0
# T4 sequence (Q9Y3R0 999-1096, limits assumed, looked up): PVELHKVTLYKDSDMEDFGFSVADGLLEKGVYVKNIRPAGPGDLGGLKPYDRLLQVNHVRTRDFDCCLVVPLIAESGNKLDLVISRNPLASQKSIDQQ
# T5: PDZD2_2, O15018
# T5 sequence (O15018 329-429, limits assumed, looked up): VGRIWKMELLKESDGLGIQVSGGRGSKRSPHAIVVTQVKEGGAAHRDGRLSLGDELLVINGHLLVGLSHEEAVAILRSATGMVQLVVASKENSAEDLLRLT
# T6: LNX2_3, Q8N448
# T6 sequence (Q8N448 463-564, limits assumed, looked up): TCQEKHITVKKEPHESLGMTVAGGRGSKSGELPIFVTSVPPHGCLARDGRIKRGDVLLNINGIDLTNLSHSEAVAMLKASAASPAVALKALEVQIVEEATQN
# T7: SNTB1, Q13884
# T7 sequence (Q13884 107-205, limits assumed, looked up): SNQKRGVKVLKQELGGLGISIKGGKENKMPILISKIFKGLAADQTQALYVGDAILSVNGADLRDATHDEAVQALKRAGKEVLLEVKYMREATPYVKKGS
# T8: APBA2_1, Q99767
# T8 sequence (Q99767 563-664, limits assumed, looked up): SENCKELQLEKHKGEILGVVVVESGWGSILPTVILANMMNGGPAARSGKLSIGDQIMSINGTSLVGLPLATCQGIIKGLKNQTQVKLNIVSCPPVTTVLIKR
# T9: RADIL, Q96JH8
# T9 sequence (Q96JH8 971-1071, limits assumed, looked up): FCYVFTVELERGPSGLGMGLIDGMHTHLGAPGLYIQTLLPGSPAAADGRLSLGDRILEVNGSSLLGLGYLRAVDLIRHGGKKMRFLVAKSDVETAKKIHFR
# T10: MPP6, Q9NZW5
# T10 sequence (Q9NZW5 125-219, limits assumed, looked up): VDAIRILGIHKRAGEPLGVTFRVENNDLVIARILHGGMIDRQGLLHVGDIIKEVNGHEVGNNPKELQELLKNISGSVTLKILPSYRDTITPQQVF
# T11: SNTG1, Q9NSN8
# T11 sequence (Q9NSN8 52-150, limits assumed, looked up): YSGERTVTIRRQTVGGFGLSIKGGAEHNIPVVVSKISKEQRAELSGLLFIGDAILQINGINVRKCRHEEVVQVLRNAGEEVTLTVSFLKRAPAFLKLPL
# T12: APBA3_1, O96018
# T12 sequence (O96018 389-490, limits assumed, looked up): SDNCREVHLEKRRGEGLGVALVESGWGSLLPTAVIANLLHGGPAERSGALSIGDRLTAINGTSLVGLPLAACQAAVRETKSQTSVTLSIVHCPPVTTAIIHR
# Tests used:
# Test in all cases: holdup assay
# Parameters in all cases: key: below the threshold = too weak to quantify, mostly under pKd 3.1 to 4
# RAPGEF6, Q8TEU7 = target: T1, RAPGEF6, Q8TEU7
# HTRA4, P83105 = target: T2, HTRA4, P83105
# Inadl_3, Q8NI35 = target: Inadl_3, Q8NI35
# Sequence of Inadl_3, Q8NI35 (Q8NI35 359-469): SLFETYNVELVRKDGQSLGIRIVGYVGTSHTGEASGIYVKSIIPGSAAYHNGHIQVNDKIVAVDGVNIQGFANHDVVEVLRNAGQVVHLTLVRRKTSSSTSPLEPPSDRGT
# LIMK2, P53671 = target: LIMK2, P53671
# Sequence of LIMK2, P53671 (P53671 143-248): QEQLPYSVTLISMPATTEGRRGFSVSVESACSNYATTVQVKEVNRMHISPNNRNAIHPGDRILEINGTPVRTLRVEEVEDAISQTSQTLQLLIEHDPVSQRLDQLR
# Inadl_2, Q8NI35 = target: Inadl_2, Q8NI35
# Sequence of Inadl_2, Q8NI35 (Q8NI35 238-335): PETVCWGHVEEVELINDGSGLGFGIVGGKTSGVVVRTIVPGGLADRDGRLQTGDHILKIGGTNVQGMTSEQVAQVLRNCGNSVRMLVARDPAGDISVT
# PDLIM1, O00151 = target: PDLIM1, O00151
# Sequence of PDLIM1, O00151 (O00151 1-87): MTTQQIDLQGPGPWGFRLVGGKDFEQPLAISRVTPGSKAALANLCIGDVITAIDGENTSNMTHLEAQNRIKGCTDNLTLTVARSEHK
# TIAM2, Q8IVF5 = target: T3, TIAM2, Q8IVF5
# Inadl_5, Q8NI35 = target: Inadl_5, Q8NI35
# Sequence of Inadl_5, Q8NI35 (Q8NI35 673-780): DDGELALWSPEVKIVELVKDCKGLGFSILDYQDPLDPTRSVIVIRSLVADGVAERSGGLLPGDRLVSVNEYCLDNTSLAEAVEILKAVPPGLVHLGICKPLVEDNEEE
# GRIP1_7, Q9Y3R0 = target: T4, GRIP1_7, Q9Y3R0
# FRMPD2_2, Q68DX3 = target: FRMPD2_2, Q68DX3
# Sequence of FRMPD2_2, Q68DX3 (Q68DX3 944-1038): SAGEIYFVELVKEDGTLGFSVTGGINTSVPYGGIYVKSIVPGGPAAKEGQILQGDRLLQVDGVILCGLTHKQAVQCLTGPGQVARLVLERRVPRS
# DLG4_1, P78352 = target: DLG4_1, P78352
# Sequence of DLG4_1, P78352 (P78352 62-152): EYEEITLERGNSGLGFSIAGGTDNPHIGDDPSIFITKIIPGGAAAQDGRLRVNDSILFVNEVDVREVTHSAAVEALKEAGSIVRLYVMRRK
# PDZD2_2, O15018 = target: T5, PDZD2_2, O15018
# GRIP2_6, Q9C0E4 = target: GRIP2_6, Q9C0E4
# Sequence of GRIP2_6, Q9C0E4 (Q9C0E4 648-740): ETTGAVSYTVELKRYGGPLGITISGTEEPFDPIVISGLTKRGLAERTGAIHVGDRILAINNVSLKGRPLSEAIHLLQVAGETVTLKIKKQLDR
# GRIP2_4, Q9C0E4 = target: GRIP2_4, Q9C0E4
# Sequence of GRIP2_4, Q9C0E4 (Q9C0E4 446-548): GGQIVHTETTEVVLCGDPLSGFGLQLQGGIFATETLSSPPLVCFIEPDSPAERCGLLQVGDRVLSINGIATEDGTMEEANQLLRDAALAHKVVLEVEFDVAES
# LNX2_3, Q8N448 = target: T6, LNX2_3, Q8N448
# GRIP2_5, Q9C0E4 = target: GRIP2_5, Q9C0E4
# Sequence of GRIP2_5, Q9C0E4 (Q9C0E4 544-642): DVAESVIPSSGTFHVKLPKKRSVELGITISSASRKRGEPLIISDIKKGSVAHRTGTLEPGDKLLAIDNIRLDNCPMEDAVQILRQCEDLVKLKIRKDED
# SNTB1, Q13884 = target: T7, SNTB1, Q13884
# APBA2_1, Q99767 = target: T8, APBA2_1, Q99767
# DLG1_1, Q12959 = target: DLG1_1, Q12959
# RADIL, Q96JH8 = target: T9, RADIL, Q96JH8
# MPP6, Q9NZW5 = target: T10, MPP6, Q9NZW5
# SNTG1, Q9NSN8 = target: T11, SNTG1, Q9NSN8
# DLG5_1, Q8TDM6 = target: DLG5_1, Q8TDM6
# Sequence of DLG5_1, Q8TDM6 (Q8TDM6 617-713): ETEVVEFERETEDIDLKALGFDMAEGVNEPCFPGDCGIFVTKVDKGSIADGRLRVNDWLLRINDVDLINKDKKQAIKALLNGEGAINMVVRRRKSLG
# TJP1_3, Q07157 = target: TJP1_3, Q07157
# Sequence of TJP1_3, Q07157 (Q07157 416-512): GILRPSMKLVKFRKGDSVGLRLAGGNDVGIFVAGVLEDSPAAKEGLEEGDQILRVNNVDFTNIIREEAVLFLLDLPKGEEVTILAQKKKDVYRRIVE
# APBA3_1, O96018 = target: T12, APBA3_1, O96018
# [1] = plain residues with an end cap or a label only (N-terminal biotin on a linker: ado-ado)
# [2] = modified: phospho on T at position -2 from the C-terminal residue
binder,measurement,setting,value
"QPCFNKLFPL [LPXN, O60711]",pKd,"RAPGEF6, Q8TEU7; [1]",below the threshold
same,pKd,"HTRA4, P83105; [1]",3.95
same,pKd,"Inadl_3, Q8NI35; [1]",below the threshold
same,pKd,"LIMK2, P53671; [1]",below the threshold
same,pKd,"Inadl_2, Q8NI35; [1]",below the threshold
same,pKd,"PDLIM1, O00151; [1]",below the threshold
same,pKd,"TIAM2, Q8IVF5; [1]",below the threshold
same,pKd,"Inadl_5, Q8NI35; [1]",below the threshold
same,pKd,"GRIP1_7, Q9Y3R0; [1]",below the threshold
same,pKd,"FRMPD2_2, Q68DX3; [1]",below the threshold
same,pKd,"DLG4_1, P78352; [1]",below the threshold
same,pKd,"PDZD2_2, O15018; [1]",below the threshold
same,pKd,"GRIP2_6, Q9C0E4; [1]",below the threshold
same,pKd,"GRIP2_4, Q9C0E4; [1]",below the threshold
same,pKd,"LNX2_3, Q8N448; [1]",below the threshold
same,pKd,"GRIP2_5, Q9C0E4; [1]",below the threshold
same,pKd,"SNTB1, Q13884; [1]",below the threshold
same,pKd,"APBA2_1, Q99767; [1]",below the threshold
same,pKd,"DLG1_1, Q12959; [1]",below the threshold
same,pKd,"RADIL, Q96JH8; [1]",below the threshold
same,pKd,"MPP6, Q9NZW5; [1]",below the threshold
same,pKd,"SNTG1, Q9NSN8; [1]",below the threshold
same,pKd,"DLG5_1, Q8TDM6; [1]",below the threshold
same,pKd,"TJP1_3, Q07157; [1]",below the threshold
same,pKd,"APBA3_1, O96018; [1]",below the threshold
"RLQRRRETQV [HPV18-E6_-2P, P06463]",pKd,"RAPGEF6, Q8TEU7; [2]",below the threshold
same,pKd,"HTRA4, P83105; [2]",below the threshold
same,pKd,"Inadl_3, Q8NI35; [2]",below the threshold
same,pKd,"LIMK2, P53671; [2]",below the threshold
same,pKd,"Inadl_2, Q8NI35; [2]",below the threshold
same,pKd,"PDLIM1, O00151; [2]",below the threshold
same,pKd,"TIAM2, Q8IVF5; [2]",below the threshold
same,pKd,"Inadl_5, Q8NI35; [2]",below the threshold
same,pKd,"GRIP1_7, Q9Y3R0; [2]",below the threshold
same,pKd,"FRMPD2_2, Q68DX3; [2]",below the threshold
same,pKd,"DLG4_1, P78352; [2]",below the threshold
same,pKd,"PDZD2_2, O15018; [2]",below the threshold
same,pKd,"GRIP2_6, Q9C0E4; [2]",below the threshold
same,pKd,"GRIP2_4, Q9C0E4; [2]",below the threshold
same,pKd,"LNX2_3, Q8N448; [2]",below the threshold
same,pKd,"GRIP2_5, Q9C0E4; [2]",below the threshold
same,pKd,"SNTB1, Q13884; [2]",below the threshold
same,pKd,"APBA2_1, Q99767; [2]",below the threshold
same,pKd,"DLG1_1, Q12959; [2]",below the threshold
same,pKd,"RADIL, Q96JH8; [2]",below the threshold
same,pKd,"MPP6, Q9NZW5; [2]",3.57
same,pKd,"SNTG1, Q9NSN8; [2]",below the threshold
same,pKd,"DLG5_1, Q8TDM6; [2]",below the threshold
same,pKd,"TJP1_3, Q07157; [2]",below the threshold
same,pKd,"APBA3_1, O96018; [2]",below the threshold
"PRISRSQSEL [CCDC134, Q9H6E4]",pKd,"RAPGEF6, Q8TEU7; [1]",below the threshold
same,pKd,"HTRA4, P83105; [1]",below the threshold
same,pKd,"Inadl_3, Q8NI35; [1]",below the threshold
same,pKd,"LIMK2, P53671; [1]",below the threshold
same,pKd,"Inadl_2, Q8NI35; [1]",below the threshold
same,pKd,"PDLIM1, O00151; [1]",below the threshold
same,pKd,"TIAM2, Q8IVF5; [1]",3.86
same,pKd,"Inadl_5, Q8NI35; [1]",below the threshold
same,pKd,"GRIP1_7, Q9Y3R0; [1]",below the threshold
same,pKd,"FRMPD2_2, Q68DX3; [1]",below the threshold
same,pKd,"DLG4_1, P78352; [1]",below the threshold
same,pKd,"PDZD2_2, O15018; [1]",3.66
same,pKd,"GRIP2_6, Q9C0E4; [1]",below the threshold
same,pKd,"GRIP2_4, Q9C0E4; [1]",below the threshold
same,pKd,"LNX2_3, Q8N448; [1]",below the threshold
same,pKd,"GRIP2_5, Q9C0E4; [1]",below the threshold
same,pKd,"SNTB1, Q13884; [1]",below the threshold
same,pKd,"APBA2_1, Q99767; [1]",below the threshold
same,pKd,"DLG1_1, Q12959; [1]",below the threshold
same,pKd,"RADIL, Q96JH8; [1]",below the threshold
same,pKd,"MPP6, Q9NZW5; [1]",below the threshold
same,pKd,"SNTG1, Q9NSN8; [1]",below the threshold
same,pKd,"DLG5_1, Q8TDM6; [1]",below the threshold
same,pKd,"TJP1_3, Q07157; [1]",below the threshold
same,pKd,"APBA3_1, O96018; [1]",below the threshold
"LPHPHSTTRV [NLGN2, Q8NFZ4]",pKd,"RAPGEF6, Q8TEU7; [1]",below the threshold
same,pKd,"HTRA4, P83105; [1]",3.97
same,pKd,"Inadl_3, Q8NI35; [1]",below the threshold
same,pKd,"LIMK2, P53671; [1]",below the threshold
same,pKd,"Inadl_2, Q8NI35; [1]",below the threshold
same,pKd,"PDLIM1, O00151; [1]",below the threshold
same,pKd,"TIAM2, Q8IVF5; [1]",below the threshold
same,pKd,"Inadl_5, Q8NI35; [1]",below the threshold
same,pKd,"GRIP1_7, Q9Y3R0; [1]",below the threshold
same,pKd,"FRMPD2_2, Q68DX3; [1]",3.59
same,pKd,"DLG4_1, P78352; [1]",below the threshold
same,pKd,"PDZD2_2, O15018; [1]",below the threshold
same,pKd,"GRIP2_6, Q9C0E4; [1]",below the threshold
same,pKd,"GRIP2_4, Q9C0E4; [1]",below the threshold
same,pKd,"LNX2_3, Q8N448; [1]",below the threshold
same,pKd,"GRIP2_5, Q9C0E4; [1]",below the threshold
same,pKd,"SNTB1, Q13884; [1]",4.22
same,pKd,"APBA2_1, Q99767; [1]",below the threshold
same,pKd,"DLG1_1, Q12959; [1]",3.78
same,pKd,"RADIL, Q96JH8; [1]",3.87
same,pKd,"MPP6, Q9NZW5; [1]",below the threshold
same,pKd,"SNTG1, Q9NSN8; [1]",below the threshold
same,pKd,"DLG5_1, Q8TDM6; [1]",below the threshold
same,pKd,"TJP1_3, Q07157; [1]",below the threshold
same,pKd,"APBA3_1, O96018; [1]",below the threshold
